# B1: EGFwt-Fc fusion protein (Fc fusion)
# chain: not shown
# notes: A single EGF-Fc protein contains two EGF domains; also called EGF-Fc (WT); EGF(A)-Fc; not shown: Fc domain of human IgG1 (C222-K443)
# Tests used:
# [1] = target: T1, recombinant human PCSK9 with a histidine (His)8 C-terminal tag (human, UniProt Q8NBP7 31-692, biotinylated in vitro (EZ-link Sulfo-NHS-biotinylation kit) where the assay names biotinylated PCSK9); test: cell-based or functional assay
# [2] = target: T1, recombinant human PCSK9 with a …; test: SPR (Biacore 3000), EGF-Fc captured by anti-human Fc, PCSK9 injected, 1 mM CaCl2; SPR, 1 mM Ca^2+
# [3] = target: T1, recombinant human PCSK9 with a …; test: biolayer interferometry (Octet RED 384), EGF-Fc on Fc biosensor, PCSK9 0-500 nM, 1 mM CaCl2, steady state fit; biolayer interferometry, steady state, 1 mM CaCl2
binder,measurement,setting,value
B1,EC50: concentration that restored LDLR levels on the HepG2 cell surface to 50% of control,[1],11 µM
same,Kd,[2],0.935 µM
same,Kd,[3],0.9 µM

# — patent US20140212431A1 (Genentech, published 2014)
